Source: the supplement of paper PMC9732359
± gives the uncertainty stated by the source.

Assay: protein stability index of a GFP-peptide fusion (yeast GPS) (PSI 1-4); higher = more stable; sorted into four equal gates, so the index is relative within each strain
Procedure, shortened: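 Tiled yeast protein peptides of 17 residues were each joined downstream of GFP, on plasmids that also express Cherry. The pooled library was maintained in yeast, and mid-log cultures in leucine-free medium were sorted into four equal gates on the GFP/Cherry ratio. Plasmids from every gate were amplified by PCR and sequenced on Illumina, with barcodes linking reads to strains. The protein stability index of a peptide is its gate-number-weighted read frequency summed over the gates.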

Row | Sequence | protein stability index (doa10∆) | protein stability index (pdr5∆) | protein stability index (san1∆) | protein stability index (ubr1∆)
1 | PKSTAPIFSFGKQEENG [YOR098C/NUP1] | 2.24 ± 0.053 | 2.75 ± 0.069 | 2.49 ± 0.059 | 2.38 ± 0.043
2 | DNFSPHQNVIIGSNGSG [SMC3] | – | 2.89 ± 0.14 | 2.78 ± 0.088 | 3.28 ± 0.079
3 | KRLIAHDWLNALDGDLI [YCG1] | 2.18 ± 0.17 | 2.9 ± 0.16 | 2.6 ± 0.17 | 3.23 ± 0.081
4 | DNIRYATALQTCAGGRL [SMC2] | 2.31 ± 0.086 | 3.02 ± 0.083 | 2.8 ± 0.11 | 1.62 ± 0.058
5 | LELTTGATYRGKLVESE [SMD3] | 3.29 ± 0.079 | 3.26 ± 0.084 | 2.94 ± 0.11 | 3.38 ± 0.057
6 | VLNCLRTMYFILDGQDV [YJR042W/NUP85] | 1.87 ± 0.083 | 1.42 ± 0.091 | 1.31 ± 0.1 | 1.34 ± 0.078
7 | VMFATNRPNTLDPALLR [RPT1] | 2.81 ± 0.075 | 3.05 ± 0.079 | 2.9 ± 0.062 | 2.91 ± 0.073
8 | QLKMVNERELNVFARLS [RPC82] | – | 2 ± 0.2 | – | 2.95 ± 0.12
9 | ENNDDALDLDLDLFDPD [MED4] | 2.89 ± 0.067 | 2.98 ± 0.098 | 2.79 ± 0.052 | 3.1 ± 0.051
10 | NSRNAIRKLVKNGTIVK [RPL19A] | 2.84 ± 0.07 | 2.9 ± 0.063 | 2.89 ± 0.057 | 2.79 ± 0.066
11 | VPPMKLAYSKIVNGQTF [YMR129W/POM152] | 1.37 ± 0.068 | 1.48 ± 0.072 | 1.09 ± 0.12 | 1.65 ± 0.053
12 | GAELRSVCTEAGMFAIR [RPT1] | 2.61 ± 0.18 | 3.4 ± 0.3 | – | 3.03 ± 0.23
13 | VGGKSTVQNEILGDLGK [FAS2] | 3.02 ± 0.075 | 2.92 ± 0.1 | 2.18 ± 0.1 | 3.25 ± 0.11
14 | IAAMVAQKCGWTIPHKK [SIR2] | 2.33 ± 0.096 | 2.41 ± 0.2 | 2.06 ± 0.15 | 2.35 ± 0.051
15 | EREQPQENKNIDDENIT [SRB4] | 3.5 ± 0.055 | 3.19 ± 0.071 | 3.07 ± 0.051 | 3.65 ± 0.084
16 | SMDVDDKNSGVKSEVDV [ITC1] | 2.52 ± 0.076 | 1.64 ± 0.039 | 1.78 ± 0.094 | 2.5 ± 0.043
17 | KVRLNASEREELALIEE [PRP8] | 3.14 ± 0.17 | 2.89 ± 0.14 | 2.98 ± 0.12 | –
18 | VEWINPSRRERRREQTT [ISW2] | – | – | – | 3.39 ± 0.15
19 | VKKPHRYKPGTVALREI [HHT1] | 3.15 ± 0.14 | 3.17 ± 0.1 | 2.75 ± 0.094 | 3.25 ± 0.12
20 | ADLMALENATWTMRIEG [SNF12] | 2.94 ± 0.11 | 3.05 ± 0.13 | 3.17 ± 0.12 | 3.07 ± 0.081
21 | DEDKFKKLKPIVAKYDP [PRP28] | 2.78 ± 0.077 | 2.9 ± 0.088 | 2.9 ± 0.094 | 1.98 ± 0.059
22 | LRSDIPCLSRSCTKCPQ [DIS3] | 2.89 ± 0.04 | 2.94 ± 0.04 | 2.91 ± 0.031 | 2.92 ± 0.033
23 | RNADELSSYQKKIIKCD [PRE5] | 2.25 ± 0.058 | 2.08 ± 0.084 | 2.58 ± 0.086 | 1.65 ± 0.049
24 | TQLKKRAVSGVELRIYV [POP7] | 2.66 ± 0.13 | 2.23 ± 0.11 | 2.44 ± 0.14 | 2.78 ± 0.16
25 | DTFLPPPPPPPSNFEIN [PRP8] | 2.6 ± 0.039 | 2.57 ± 0.039 | 2.34 ± 0.04 | 2.33 ± 0.032

Row | Sequence | protein stability index (doa10∆) | protein stability index (pdr5∆) | protein stability index (san1∆) | protein stability index (ubr1∆)
26 | ALRGMFKDRFKDEPVQN [FAS2] | 3.56 ± 0.087 | 3.43 ± 0.085 | 3.35 ± 0.069 | 3.58 ± 0.11
27 | LNVVLDDAMEINGEDPA [SMX2] | 3.35 ± 0.067 | 3.31 ± 0.07 | 3.46 ± 0.039 | 3.2 ± 0.067
28 | EIFIRCNNVLYIRELPN [SMX3] | – | 1.75 ± 0.18 | 1.53 ± 0.12 | 1.48 ± 0.12
29 | DTSAEKDQIQAGKWFDP [SIR4] | 3.51 ± 0.12 | 3.57 ± 0.14 | 3.38 ± 0.12 | 3.38 ± 0.18
30 | QFNEFIQIMANIDQEGS [PGD1] | 2.29 ± 0.073 | 2.37 ± 0.067 | 2.33 ± 0.072 | 2.54 ± 0.049
31 | VKLMKNITDYETHPDNS [BRR2] | 2.37 ± 0.054 | 2.42 ± 0.042 | 2.54 ± 0.049 | 2.09 ± 0.04
32 | NSSRFSDPMLQRTATLC [YCS4] | 2.81 ± 0.12 | 2.98 ± 0.093 | 3.21 ± 0.093 | 3.02 ± 0.078
33 | DAVKDFKLGKFNYVAVG [QCR2] | 3.2 ± 0.24 | 1.52 ± 0.14 | – | –
34 | FVKGISRDIKALQDSLF [YML103C/NUP188] | 2.25 ± 0.071 | 2.18 ± 0.058 | 1.97 ± 0.096 | 1.7 ± 0.043
35 | AAFKDIAKRQFKEILTV [RRP40] | 2.27 ± 0.051 | 2.54 ± 0.062 | 2.58 ± 0.062 | 2.55 ± 0.05
36 | DPVLDWRKSDRELTKNI [SIR4] | 2.89 ± 0.096 | 2.2 ± 0.083 | 2.52 ± 0.16 | 2.26 ± 0.08
37 | QNTVPNVLNQINQIFSP [GAL11] | 2.63 ± 0.039 | 2.5 ± 0.033 | 2.4 ± 0.038 | 2.44 ± 0.032
38 | SPGSPAYSPKQDEQKHN [RPO21] | 3.11 ± 0.15 | 3.15 ± 0.11 | 3.2 ± 0.11 | 3.27 ± 0.11
39 | NKYQYSLKQYAGNLITT [SRP68] | 3.23 ± 0.23 | 1.44 ± 0.14 | 1.7 ± 0.11 | 1.54 ± 0.06
40 | SVRIDGRKVLQKVQGES [SIR4] | 2.75 ± 0.089 | 3.11 ± 0.067 | 2.98 ± 0.066 | 2.88 ± 0.064
41 | MAQRVTFRRRNPYNTRS [RPL34A] | 1.55 ± 0.043 | 1.82 ± 0.047 | 1.54 ± 0.072 | 1.77 ± 0.043
42 | NGALDPKMGVSSSSLEC [RPO31] | 3.21 ± 0.097 | 3.41 ± 0.049 | 3.22 ± 0.067 | 3.21 ± 0.047
43 | NVEPTENAYKSENAPSA [YAR002W/NUP60] | 2.81 ± 0.094 | 3.02 ± 0.12 | 2.29 ± 0.16 | 3.03 ± 0.12
44 | PSGRTRGRSVMKESVVE [ESC2] | – | – | 2.99 ± 0.19 | 3.67 ± 0.22
45 | IIGPNGSGKSNMMDAIS [SMC1] | 3.06 ± 0.13 | 3.24 ± 0.089 | 3.03 ± 0.075 | 3.28 ± 0.05
46 | VPMKEENLEESFLSKHA [SSN2] | 3.43 ± 0.094 | 3.69 ± 0.14 | 2.98 ± 0.2 | 3.35 ± 0.25
47 | PKLLDALNKISKYYPGV [SNU114] | 3.08 ± 0.076 | 2.37 ± 0.072 | 2.8 ± 0.065 | 2.88 ± 0.044
48 | LKIYKVGDIVDIKANGS [RPL21B] | 2.18 ± 0.058 | 1.88 ± 0.05 | 1.83 ± 0.062 | 2.08 ± 0.03
49 | QLDLTGIFLHGKIPTLK [PRP8] | 2.39 ± 0.078 | 1.43 ± 0.058 | 1.58 ± 0.089 | 1.36 ± 0.046
50 | NVAKNMKTPSLTVYLEP [RPO21] | 3.07 ± 0.1 | 2.86 ± 0.085 | 2.94 ± 0.056 | 3 ± 0.1

Row | Sequence | protein stability index (doa10∆) | protein stability index (pdr5∆) | protein stability index (san1∆) | protein stability index (ubr1∆)
51 | EEREAAASKVKLEEESK [RPC53] | 3.29 ± 0.081 | 3.43 ± 0.095 | 3.37 ± 0.069 | 3.25 ± 0.063
52 | HDFIKGLIMLNLQPASV [NUT1] | 1.83 ± 0.059 | 1.24 ± 0.071 | 1.22 ± 0.14 | 1.24 ± 0.065
53 | GYVETPRGLRSLTTVWA [RPL3] | 1.75 ± 0.29 | – | – | –
54 | ERTKNAQFIVISLRNNM [SMC4] | 2.72 ± 0.13 | 1.3 ± 0.063 | 1.33 ± 0.093 | 1.73 ± 0.08
55 | GVIALGQFVTLGCTLVT [RMP1] | 2.65 ± 0.24 | 1.36 ± 0.15 | 1.18 ± 0.15 | 1.5 ± 0.12
56 | DRFPLKLREPVARFLHF [ITC1] | 1.69 ± 0.076 | 1.7 ± 0.067 | 1.79 ± 0.12 | 1.91 ± 0.046
57 | TWIQQFKSTMLQVSEKD [ARP7] | 1.89 ± 0.065 | 1.86 ± 0.066 | 1.27 ± 0.14 | 1.73 ± 0.053
58 | RGGFGGRNRGRPNRRGP [RPS2] | 3.37 ± 0.095 | 3.28 ± 0.14 | 3.44 ± 0.077 | 3.4 ± 0.13
59 | KTSSQTSLSSKDLSNYR [YMR153W/NUP53] | 2.67 ± 0.055 | 2.54 ± 0.06 | 2.58 ± 0.089 | 2.65 ± 0.039
60 | TESIALSSMRFKPSQEP [RRI1] | 2.85 ± 0.072 | 3.31 ± 0.064 | 3.3 ± 0.076 | 2.86 ± 0.057
61 | EHEEKEKERETNKKGIK [RPN2] | 3.32 ± 0.24 | 3.36 ± 0.1 | 3.33 ± 0.16 | 3.4 ± 0.25
62 | RIATEASKLAAYNKKST [HTB1] | 3.21 ± 0.097 | 2.47 ± 0.24 | – | 2.94 ± 0.098
63 | YLHQNWVLHRDLKPANI [SSN3] | 2.23 ± 0.12 | 2.74 ± 0.13 | 2.72 ± 0.23 | 2.38 ± 0.14
64 | RGFFHLNEALLQCPMLY [CSN12] | 2.06 ± 0.071 | 2.2 ± 0.058 | 1.9 ± 0.13 | 1.99 ± 0.056
65 | LESEIASSSAKLIEKKS [SMC2] | 2.69 ± 0.072 | 3.03 ± 0.058 | 3.08 ± 0.04 | 3 ± 0.055
66 | FISSNDAFNMLSLTTVP [SNF6] | 1.7 ± 0.054 | 2.44 ± 0.063 | 2.31 ± 0.11 | 2 ± 0.06
67 | MTQRAIQSAESIKSQKE [SWI3] | 2.27 ± 0.12 | 1.74 ± 0.082 | 2.5 ± 0.14 | 1.7 ± 0.13
68 | FDDLLKPVYKGKKLTDE [RET1] | – | 2.85 ± 0.27 | 3.32 ± 0.12 | –
69 | SPQQFLRAHTDDSRNPD [PRE2] | 2.93 ± 0.092 | 3.03 ± 0.069 | 2.7 ± 0.079 | 2.88 ± 0.079
70 | IDFFKTDDSFEDKVFAS [BRN1] | 3.02 ± 0.13 | 2.88 ± 0.06 | 3 ± 0.093 | 2.89 ± 0.06
71 | LRIVKPTVSLTINLDRF [RPC82] | 2.29 ± 0.068 | 2.29 ± 0.054 | 2.46 ± 0.063 | 2.43 ± 0.11
72 | ADILCPLLESFITFSLD [IRR1] | 2.63 ± 0.11 | 2.32 ± 0.081 | 2.17 ± 0.071 | 2.34 ± 0.064
73 | ELLSMNIAPRLRLEDIF [RET1] | 2.57 ± 0.065 | 2.25 ± 0.046 | 2.35 ± 0.057 | 2.5 ± 0.047
74 | PLVGKPKTELTKGDSTP [YAR002W/NUP60] | 2.59 ± 0.061 | 2.9 ± 0.058 | 2.46 ± 0.086 | 2.83 ± 0.11
75 | WRSKRIEQLFPVRPVRV [RPC53] | 3.25 ± 0.14 | 3.11 ± 0.087 | 3.21 ± 0.071 | 3.08 ± 0.069
